# ± gives the uncertainty stated by the source.
# B1: Kinesin-like protein KIF16B, residues 1213 to 1273; numbered along this chain, Q96L93 (parent)
# chain: ETWTVFRRYSRFREMHKTLKLKYAELAALEFPPKKLFGNKDERVIAERRSHLEKYLRDFFS
# Variants of: B1
# Assay: abundance fitness (aPCA) (normalised: wild type 0, dead -1); higher = more abundant; growth selection in yeast, the domain comes from the species named
# Details: Homo sapiens
row,Variant,abundance fitness
1,ETWTVFRRYSRFREMHKTLKLKYAELAALEFPPKKLFGNKDERVIAERCSHLEKYLRDFFS,0.247 ± 0.17
2,ETWTVFRRYSRFREMHKTLKLKYAELAALEFPPKKLFGNKDERVIAERWSHLEKYLRDFFS,-0.064 ± 0.095
3,ETWTVFRRYSRFREMHKTLKLKYAELAALEFPPKKLFGNKDERVIAERRSHSEKYLRDFFS,-0.647 ± 0.1
4,ETWTVFRRYSRFREMHKTLKLKYAELAALEFPPKKLFGNKDERVIAERRSHHEKYLRDFFS,-0.123 ± 0.32
5,ETWTVFRRYSRFREMHKTLKLKYAELAALEFPPKKLFGNKDERVIAERRSHMEKYLRDFFS,-0.131 ± 0.093
6,ETWTVFRRYSRFREMHKTLKLKYAELAALEFPPKKLFGNKDERVIAERRSHNEKYLRDFFS,-0.642 ± 0.34
7,ETWTVFRRYSRFREMHKTLKLKYAELAALEFPPKKLFGNKDERVIAERRSHKEKYLRDFFS,-0.184 ± 0.12
8,ETWTVFRRYSRFREMHKTLKLKYAELAALEFPPKKLFGNKDERVIAERRSHPEKYLRDFFS,0.175 ± 0.09
9,ETWTVFRRYSRFREMHKTLKLKYAELAALEFPPKKLFGNKDERVIAERRSHIEKYLRDFFS,-0.092 ± 0.12
10,ETWTVFRRYSRFREMHKTLKLKYAELAALEFPPKKLFGNKDERVIAERRSHREKYLRDFFS,-0.473 ± 0.058
11,ETWTVFRRYSRFREMHKTLKLKYAELAALEFPPKKLFGNKDERVIAERRSHGEKYLRDFFS,-0.149 ± 0.047
12,ETWTVFRRYSRFREMHKTLKLKYAELAALEFPPKKLFGNKDERVIAERRSHFEKYLRDFFS,0.048 ± 0.12
13,ETWTVFRRYSRFREMHKTLKLKYAELAALEFPPKKLFGNKDERVIAERRSHAEKYLRDFFS,-0.201 ± 0.073
14,ETWTVFRRYSRFREMHKTLKLKYAELAALEFPPKKLFGNKDERVIAERRSHQEKYLRDFFS,-0.866 ± 0.19
15,ETWTVFRRYSRFREMHKTLKLKYAELAALEFPPKKLFGNKDERVIALRRSHLEKYLRDFFS,-0.274 ± 0.068
16,ETWTVFRRYSRFREMHKTLKLKYAELAALEFPPKKLFGNKDERVIAPRRSHLEKYLRDFFS,0.118 ± 0.072
17,ETWTVFRRYSRFREMHKTLKLKYAELAALEFPPKKLFGNKDERVIARRRSHLEKYLRDFFS,0.099 ± 0.045
18,ETWTVFRRYSRFREMHKTLKLKYAELAALEFPPKKLFGNKDERVIATRRSHLEKYLRDFFS,0.132 ± 0.087
19,ETWTVFRRYSRFREMHKTLKLKYAELAALEFPPKKLFGNKDERVIANRRSHLEKYLRDFFS,0.099 ± 0.12
20,ETWTVFRRYSRFREMHKTLKLKYAELAALEFPPKKLFGNKDERVIAVRRSHLEKYLRDFFS,-0.173 ± 0.054
21,ETWTVFRRYSRFREMHKTLKLKYAELAALEFPPKKLFGNKDERVIAIRRSHLEKYLRDFFS,-0.2 ± 0.29
22,ETWTVFRRYSRFREMHKTLKLKYAELAALEFPPKKLFGNKDERVIAYRRSHLEKYLRDFFS,-0.223 ± 0.093

row,Variant,abundance fitness
1,ETWTVFRRYSRFREMHKTLKLKYAELAALEFPPKKLFGNKDERVIAMRRSHLEKYLRDFFS,-0.053 ± 0.09
2,ETWTVFRRYSRFREMHKTLKLKYAELAALEFPPKKLFGNKDERVIASRRSHLEKYLRDFFS,0.091 ± 0.05
3,ETWTVFRRYSRFREMHKTLKLKYAELAALEFPPKKLFGNKDERVIAQRRSHLEKYLRDFFS,-0.175 ± 0.085
4,ETWTVFRRYSRFREMHKTLKLKYAELAALEFPPKKLFGNKDERVIAKRRSHLEKYLRDFFS,-0.011 ± 0.16
5,ETWTVFRRYSRFREMHKTLKLKYAELAALEFPPKKLFGNKDERVIAWRRSHLEKYLRDFFS,0.014 ± 0.069
6,ETWTVFRRYSRFREMHKTLKLKYAELAALEFPPKKLFGNKDERVIAERRQHLEKYLRDFFS,-0.545 ± 0.21
7,ETWTVFRRYSRFREMHKTLKLKYAELAALEFPPKKLFGNKDERVIAERRLHLEKYLRDFFS,-0.042 ± 0.062
8,ETWTVFRRYSRFREMHKTLKLKYAELAALEFPPKKLFGNKDERVIAERRPHLEKYLRDFFS,0.045 ± 0.17
9,ETWTVFRRYSRFREMHKTLKLKYAELAALEFPPKKLFGNKDERVIAERRKHLEKYLRDFFS,-0.133 ± 0.085
10,ETWTVFRRYSRFREMHKTLKLKYAELAALEFPPKKLFGNKDERVIAERREHLEKYLRDFFS,-0.696 ± 0.12
11,ETWTVFRRYSRFREMHKTLKLKYAELAALEFPPKKLFGNKDERVIAERRHHLEKYLRDFFS,-0.039 ± 0.15
12,ETWTVFRRYSRFREMHKTLKLKYAELAALEFPPKKLFGNKDERVIAERRGHLEKYLRDFFS,-0.1 ± 0.068
13,ETWTVFRRYSRFREMHKTLKLKYAELAALEFPPKKLFGNKDERVIAERRRHLEKYLRDFFS,-0.301 ± 0.14
14,ETWTVFRRYSRFREMHKTLKLKYAELAALEFPPKKLFGNKDERVIAERRVHLEKYLRDFFS,-0.36 ± 0.063
15,ETWTVFRRYSRFREMHKTLKLKYAELAALEFPPKKLFGNKDERVIAERRWHLEKYLRDFFS,0.117 ± 0.12
16,ETWTVFRRYSRFREMHKTLKLKYAELAALEFPPKKLFGNKDERVIAERRFHLEKYLRDFFS,-0.117 ± 0.29
17,ETWTVFRRYSRFREMHKTLKLKYAELAALEFPPKKLFGNKDERVIAERRDHLEKYLRDFFS,-0.11 ± 0.14
18,ETWTVFRRYSRFREMHKTLKLKYAELAALEFPPKKLFGNKDERVIAERRCHLEKYLRDFFS,0.256 ± 0.098
19,ETWTVFRRYSRFREMHKTLKLKYAELAALEFPPKKLFGNKDERVIAERRTHLEKYLRDFFS,-0.056 ± 0.1
20,ETWTVFRRYSRFREMHKTLKLKYAELAALEFPPKKLFGNKDERVIAERRYHLEKYLRDFFS,-0.66 ± 0.23
21,ETWTVFRRYSRFREMHKTLKLKYAELAALEFPPKKLFGNKDERVIAERRAHLEKYLRDFFS,-0.213 ± 0.077
22,ETWTVFRRYSRFREMHKTLKLKYAELAALEFPPKKLFGNKDERVIAERRNHLEKYLRDFFS,0.05 ± 0.15
